T1: human GIP receptor (human, UniProt P48546 22-466)
T1 sequence (looked up): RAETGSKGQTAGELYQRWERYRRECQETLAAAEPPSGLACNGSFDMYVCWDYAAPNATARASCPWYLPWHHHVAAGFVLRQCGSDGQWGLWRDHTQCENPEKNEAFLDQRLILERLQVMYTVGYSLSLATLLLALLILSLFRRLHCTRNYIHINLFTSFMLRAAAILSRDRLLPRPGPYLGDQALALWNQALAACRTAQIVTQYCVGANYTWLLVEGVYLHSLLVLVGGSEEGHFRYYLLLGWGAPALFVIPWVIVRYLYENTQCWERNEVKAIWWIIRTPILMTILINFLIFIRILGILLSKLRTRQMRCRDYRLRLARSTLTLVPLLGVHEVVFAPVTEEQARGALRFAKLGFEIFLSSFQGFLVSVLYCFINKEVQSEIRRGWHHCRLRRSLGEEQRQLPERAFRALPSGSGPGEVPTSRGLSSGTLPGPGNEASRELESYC

B1: SEQ ID NO: 25 (peptide)
peptide: H-H[dS]HGTFTSDLSKQK([γGlu-Stearoyl])EEEAVRLFIEWLKAGGPSSGAPPPS-NH2
SMILES: CCCCCCCCCCCCCCCCCC(=O)N[C@@H](CCC(=O)NCCCC[C@H](NC(=O)[C@H](CCC(N)=O)NC(=O)[C@H](CCCCN)NC(=O)[C@H](CO)NC(=O)[C@H](CC(C)C)NC(=O)[C@H](CC(=O)O)NC(=O)[C@H](CO)NC(=O)[C@@H](NC(=O)[C@H](Cc1ccccc1)NC(=O)[C@@H](NC(=O)CNC(=O)[C@H](Cc1c[nH]cn1)NC(=O)[C@@H](CO)NC(=O)[C@@H](N)Cc1c[nH]cn1)[C@@H](C)O)[C@@H](C)O)C(=O)N[C@@H](CCC(=O)O)C(=O)N[C@@H](CCC(=O)O)C(=O)N[C@@H](CCC(=O)O)C(=O)N[C@@H](C)C(=O)N[C@H](C(=O)N[C@@H](CCCNC(=N)N)C(=O)N[C@@H](CC(C)C)C(=O)N[C@@H](Cc1ccccc1)C(=O)N[C@H](C(=O)N[C@@H](CCC(=O)O)C(=O)N[C@@H](Cc1c[nH]c2ccccc12)C(=O)N[C@@H](CC(C)C)C(=O)N[C@@H](CCCCN)C(=O)N[C@@H](C)C(=O)NCC(=O)NCC(=O)N1CCC[C@H]1C(=O)N[C@@H](CO)C(=O)N[C@@H](CO)C(=O)NCC(=O)N[C@@H](C)C(=O)N1CCC[C@H]1C(=O)N1CCC[C@H]1C(=O)N1CCC[C@H]1C(=O)N[C@@H](CO)C(N)=O)[C@@H](C)CC)C(C)C)C(=O)O

Numbered stars: 1 amine (or outer) side, 2 acyl side, 3 side chain; on linkers, the order of the positions; unused ones are H or OH. Square brackets hold non-standard residues; d marks the D form. Side chains are listed from the residue outwards. Ends that are not written are not given here. * marks the point of attachment. γGlu = O=C(O)[C@H](CCC(=O)[*:2])N[*:1]; Stearoyl = CCCCCCCCCCCCCCCCCC(=O)*; Palmitoyl = CCCCCCCCCCCCCCCC(=O)*; Aib = CC(C)(N)C(=O)O

For the first assay, the target named is T2, human GLP-1 receptor (human, UniProt P43220 24-463). As to the kind of experiment: cell-based or functional assay.
Turning to H[dS]HGTFTSDLSKQK(Ac)EEEAVRLFIEWLKAGGPSSGAPPPS-NH2 [SEQ ID NO: 35], the “EC50 hGLP-1R (cAMP formation)” value amounted to 0.0004 nM.
Take B1: the “EC50 hGLP-1R (cAMP formation)” value came out at 0.0081 nM.
Same read-out and setting: in the case of H-H[Aib]HGTFTSDLSKQK(Ac)EEEAVRLFIEWLKAGGPSSGAPPPS-NH2 [SEQ ID NO: 34] it was 0.0007 nM.
On the same count and under the same terms, in the case of H[Aib]HGTFTSDLSKQK([γGlu-Stearoyl])EEEAVRLFIEWLKAGGPSSGAPPPS-NH2 [SEQ ID NO: 7] it was 0.0065 nM; in that of H[Aib]HGTFTSDLSKQK([γGlu-Palmitoyl])EEEAVRLFIEWLKAGGPSSGAPPPS-NH2 [SEQ ID NO: 12], 0.0033 nM; in that of H[dS]HGTFTSDLSKQK([γGlu-Palmitoyl])EEEAVRLFIEWLKAGGPSSGAPPPS-NH2 [SEQ ID NO: 14], 0.0041 nM.

The target of another assay is T1, human GIP receptor. As to the kind of experiment: cell-based or functional assay.
Consider H[dS]HGTFTSDLSKQK(Ac)EEEAVRLFIEWLKAGGPSSGAPPPS-NH2 [SEQ ID NO: 35], for which the “EC50 hGIP-1 (cAMP formation)” value was found to be 4.04 nM.
Same read-out and setting: in the case of B1 it was 0.407 nM; in that of H[dS]HGTFTSDLSKQK([γGlu-γGlu-Palmitoyl])EEEAVRLFIEWLKAGGPSSGAPPPS-NH2 [SEQ ID NO: 13], 0.079 nM; in that of H-H[Aib]HGTFTSDLSKQK(Ac)EEEAVRLFIEWLKAGGPSSGAPPPS-NH2 [SEQ ID NO: 34], 0.0254 nM.
In the case of H[Aib]HGTFTSDLSKQK([γGlu-Stearoyl])EEEAVRLFIEWLKAGGPSSGAPPPS-NH2 [SEQ ID NO: 7], the “EC50 hGIP-1 (cAMP formation)” value is 0.0256 nM.
On the same count and under the same terms, in the case of H[Aib]HGTFTSDLSKQK([γGlu-Palmitoyl])EEEAVRLFIEWLKAGGPSSGAPPPS-NH2 [SEQ ID NO: 12] it was 0.0088 nM; in that of H[dS]HGTFTSDLSKQK([γGlu-Palmitoyl])EEEAVRLFIEWLKAGGPSSGAPPPS-NH2 [SEQ ID NO: 14], 0.437 nM; in that of H[Aib]HGTFTSDLSKQK([γGlu-γGlu-Palmitoyl])EEEAVRLFIEWLKAGGPSSGAPPPS-NH2 [SEQ ID NO: 11], 0.0079 nM.

The target of the next assay is T3, human glucagon receptor (human, UniProt P47871 26-477). Put plainly: cell-based or functional assay.
T3 sequence (P47871 26-477): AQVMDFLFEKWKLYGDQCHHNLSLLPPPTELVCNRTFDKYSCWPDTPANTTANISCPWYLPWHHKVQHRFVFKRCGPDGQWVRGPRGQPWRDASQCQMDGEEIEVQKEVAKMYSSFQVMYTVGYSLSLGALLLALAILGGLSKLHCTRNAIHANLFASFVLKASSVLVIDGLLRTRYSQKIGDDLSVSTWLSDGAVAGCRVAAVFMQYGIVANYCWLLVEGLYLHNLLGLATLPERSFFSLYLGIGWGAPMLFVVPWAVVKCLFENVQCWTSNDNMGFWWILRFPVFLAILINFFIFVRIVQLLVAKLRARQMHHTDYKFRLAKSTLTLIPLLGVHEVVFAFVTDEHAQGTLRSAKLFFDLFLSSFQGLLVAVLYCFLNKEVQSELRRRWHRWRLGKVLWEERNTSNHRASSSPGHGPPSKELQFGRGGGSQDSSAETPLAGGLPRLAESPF
For H[dS]HGTFTSDLSKQK(Ac)EEEAVRLFIEWLKAGGPSSGAPPPS-NH2 [SEQ ID NO: 35], the “EC50 hGlucagon-R (cAMP formation)” value was found to be 2.86 nM.
Still for that read-out and setting: in the case of B1 it was 0.0399 nM; in that of H[dS]HGTFTSDLSKQK([γGlu-γGlu-Palmitoyl])EEEAVRLFIEWLKAGGPSSGAPPPS-NH2 [SEQ ID NO: 13], 0.0225 nM; in that of H-H[Aib]HGTFTSDLSKQK(Ac)EEEAVRLFIEWLKAGGPSSGAPPPS-NH2 [SEQ ID NO: 34], 0.829 nM.
For the molecule H[Aib]HGTFTSDLSKQK([γGlu-Stearoyl])EEEAVRLFIEWLKAGGPSSGAPPPS-NH2 [SEQ ID NO: 7], the “EC50 hGlucagon-R (cAMP formation)” value stood at 0.0058 nM.
Regarding H[Aib]HGTFTSDLSKQK([γGlu-Palmitoyl])EEEAVRLFIEWLKAGGPSSGAPPPS-NH2 [SEQ ID NO: 12], the “EC50 hGlucagon-R (cAMP formation)” value was 0.0128 nM.
Still for that read-out and setting: in the case of H[dS]HGTFTSDLSKQK([γGlu-Palmitoyl])EEEAVRLFIEWLKAGGPSSGAPPPS-NH2 [SEQ ID NO: 14] it was 0.0584 nM.
Still for that read-out and setting: in the case of H[Aib]HGTFTSDLSKQK([γGlu-γGlu-Palmitoyl])EEEAVRLFIEWLKAGGPSSGAPPPS-NH2 [SEQ ID NO: 11] it was 0.0089 nM.

The target in another assay is T2, human GLP-1 receptor. Put plainly: cell-based or functional assay. The source holds these as a separate data set.
Turning to B1, the “EC50 hGLP-1R (cAMP formation)” value was 0.0081 nM.
On the same count and under the same terms, in the case of H[Aib]HGTFTSDLSKQK([γGlu-Stearoyl])EEEAVRLFIEWLKAGGPSSGAPPPS-NH2 [SEQ ID NO: 7] it was 0.0065 nM.
Turning to H[Aib]HGTFTSDLSKQK([γGlu-Palmitoyl])EEEAVRLFIEWLKAGGPSSGAPPPS-NH2 [SEQ ID NO: 12], the “EC50 hGLP-1R (cAMP formation)” value was determined as 0.0033 nM.
With H[dS]HGTFTSDLSKQK([γGlu-Palmitoyl])EEEAVRLFIEWLKAGGPSSGAPPPS-NH2 [SEQ ID NO: 14], the “EC50 hGLP-1R (cAMP formation)” value worked out at 0.0041 nM.

For another assay, the target named is T1, human GIP receptor. Put plainly: cell-based or functional assay. The source holds these as a separate data set.
As to B1, the “EC50 hGIP-R (cAMP formation)” value came out at 0.407 nM.
Same read-out and setting: in the case of H[dS]HGTFTSDLSKQK([γGlu-γGlu-Palmitoyl])EEEAVRLFIEWLKAGGPSSGAPPPS-NH2 [SEQ ID NO: 13] it was 0.079 nM; in that of H[Aib]HGTFTSDLSKQK([γGlu-Stearoyl])EEEAVRLFIEWLKAGGPSSGAPPPS-NH2 [SEQ ID NO: 7], 0.0256 nM.
Take H[Aib]HGTFTSDLSKQK([γGlu-Palmitoyl])EEEAVRLFIEWLKAGGPSSGAPPPS-NH2 [SEQ ID NO: 12]: the “EC50 hGIP-R (cAMP formation)” value was 0.0088 nM.
Same read-out and setting: in the case of H[dS]HGTFTSDLSKQK([γGlu-Palmitoyl])EEEAVRLFIEWLKAGGPSSGAPPPS-NH2 [SEQ ID NO: 14] it was 0.437 nM.
Take H[Aib]HGTFTSDLSKQK([γGlu-γGlu-Palmitoyl])EEEAVRLFIEWLKAGGPSSGAPPPS-NH2 [SEQ ID NO: 11]: the “EC50 hGIP-R (cAMP formation)” value amounted to 0.0079 nM.

A further assay addresses T3, human glucagon receptor. As to the kind of experiment: cell-based or functional assay. This is another data set of the same source.
Turning to B1, the “EC50 hGlucagon-R (cAMP formation)” value is 0.0399 nM.
On the same count and under the same terms, in the case of H[dS]HGTFTSDLSKQK([γGlu-γGlu-Palmitoyl])EEEAVRLFIEWLKAGGPSSGAPPPS-NH2 [SEQ ID NO: 13] it was 0.0225 nM; in that of H[Aib]HGTFTSDLSKQK([γGlu-Stearoyl])EEEAVRLFIEWLKAGGPSSGAPPPS-NH2 [SEQ ID NO: 7], 0.0058 nM; in that of H[Aib]HGTFTSDLSKQK([γGlu-Palmitoyl])EEEAVRLFIEWLKAGGPSSGAPPPS-NH2 [SEQ ID NO: 12], 0.0128 nM.
The same measure, in the same setting: in the case of H[dS]HGTFTSDLSKQK([γGlu-Palmitoyl])EEEAVRLFIEWLKAGGPSSGAPPPS-NH2 [SEQ ID NO: 14] it was 0.0584 nM; in that of H[Aib]HGTFTSDLSKQK([γGlu-γGlu-Palmitoyl])EEEAVRLFIEWLKAGGPSSGAPPPS-NH2 [SEQ ID NO: 11], 0.0089 nM.

The record behind these values is patent US20150322129A1 (Sanofi, published 2015).
